Measured values reported in patent US6423680B1, “Inhibitor of platelet activating factor” (HSC Research and Development Limited Partnership, priority 1998, dated 2002).

Tests used:
GM2 activator protein = biological target: T1, GM2 activator protein (Homo sapiens, UniProt P17900); assay: Fluorescence dequenching assay (R-18 transport between liposomes; ligand binding)
T1 construct: ID NO; His6 (N); made in house
T1 sequence (P17900 32-193): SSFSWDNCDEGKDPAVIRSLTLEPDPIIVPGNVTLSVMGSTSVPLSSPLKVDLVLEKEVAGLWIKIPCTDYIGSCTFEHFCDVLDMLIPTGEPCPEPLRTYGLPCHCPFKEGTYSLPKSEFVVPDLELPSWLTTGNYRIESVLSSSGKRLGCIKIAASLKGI
Method: The ability of the activator protein to bind GM2 ganglioside, PAF, N-formyl-Met-Leu-Phe (fMLP), or leukotriene B4 (LTB4) was assessed using a fluorescence dequenching assay. This assay was first used to evaluate the ability of the activator to transport a self-quenching fluorescence dye, R-18 (octadecylrhodamine conjugated to a saturated C-18 hydrocarbon chain) (obtained from Molecular Probes), between labeled and unlabeled liposomes (phosphatidylcholine containing large unilamellar vesicles, PC-LUV8). An increase in fluorescence over time when the activator protein and unlabeled liposomes were admixed with R-18 labeled liposomes indicates the ability of the activator to transport the R-18 dye, the fluorescence of which is proportional to concentration of dye that is transported to the unlabelled liposomes. […]
The R-18 labeled liposomes were prepared as follows. […] The column was then eluted with NHE buffer to yield a quantity of labeled liposomes sufficient for 10 assays.
In each fluorescence dequenching assay, 5 μg of activator protein was mixed with 630 nmol of unlabeled liposomes. […] The rate of increase in fluorescence emission was then determined by monitoring at 590 nm, using an excitation wavelength of 560 nm, on a 650-40 fluorometer (Perkin-Elmer). […]
The fluorescence dequenching of the R-18 liposome preparations was measured and calculated as follows. […]

PAF = assay: Calcium release assay in INDO-1 AM-loaded neutrophils; assay type: cell-based, human
Method: Neutrophils were isolated from heparinized venous blood collected from healthy volunteers as previously reported (Laneuville et al., Biochem. J. 295:393-397, 1993). Neutrophils (1 ml, 10^7 cells) were loaded with a […] solution of a fluorescent dye, INDO-1 AM (Calbiochem.) for use in calculating [Ca^2+]i as previously reported (Laneuville et al., supra; Reynaud and Pace-Asciak, Prostaglandins Leukot. Essent. Fatty Acids 56:9-12,1997). For each measurement, 2×10^6 cells were used in 1 ml of cell medium in a temperature-controlled (37° C.) plastic cuvette with continuous stirring. Varying concentrations of functional GM2 activator protein and non-functional truncated GM2 activator protein (i.e. 0, 0.32 and 0.8 nmol) were added to individual cuvettes. Following equilibration of the assay mix, PAF (0.002 nmol) was added and the increase in [Ca^2+]i calculated by a determination of fluorescence. Fluorescence was measured using a Perkin-Elmer fluorescence spectrophotometer as previously reported (Reynaud and Pace-Asciak, supra).
The PAF-response was inhibited by 75% when 800 pmol (15 μg/ml) of activator was present, but not at all in the presence of 800 pmol of the non-functional truncated activator.

β-hexosaminidase A = biological target: T2, β-hexosaminidase A (Homo sapiens, UniProt P06865+P07686); assay: Conventional biological assay: co-factor for hydrolysis of GM2 ganglioside by β-hexosaminidase A; assay type: biochemical
T2 sequence (P06865 89-529): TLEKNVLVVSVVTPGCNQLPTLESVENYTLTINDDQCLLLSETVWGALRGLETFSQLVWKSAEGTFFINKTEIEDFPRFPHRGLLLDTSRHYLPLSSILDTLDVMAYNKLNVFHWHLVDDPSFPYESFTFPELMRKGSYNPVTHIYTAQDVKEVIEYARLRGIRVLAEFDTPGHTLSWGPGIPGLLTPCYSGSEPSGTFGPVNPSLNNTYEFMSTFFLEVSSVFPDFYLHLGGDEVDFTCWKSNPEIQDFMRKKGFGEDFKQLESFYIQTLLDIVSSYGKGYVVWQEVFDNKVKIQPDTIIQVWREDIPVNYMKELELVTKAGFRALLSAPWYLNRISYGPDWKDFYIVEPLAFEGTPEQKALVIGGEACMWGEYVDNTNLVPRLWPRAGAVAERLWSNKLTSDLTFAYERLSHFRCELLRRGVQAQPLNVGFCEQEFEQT
T2 sequence (P07686 122-556): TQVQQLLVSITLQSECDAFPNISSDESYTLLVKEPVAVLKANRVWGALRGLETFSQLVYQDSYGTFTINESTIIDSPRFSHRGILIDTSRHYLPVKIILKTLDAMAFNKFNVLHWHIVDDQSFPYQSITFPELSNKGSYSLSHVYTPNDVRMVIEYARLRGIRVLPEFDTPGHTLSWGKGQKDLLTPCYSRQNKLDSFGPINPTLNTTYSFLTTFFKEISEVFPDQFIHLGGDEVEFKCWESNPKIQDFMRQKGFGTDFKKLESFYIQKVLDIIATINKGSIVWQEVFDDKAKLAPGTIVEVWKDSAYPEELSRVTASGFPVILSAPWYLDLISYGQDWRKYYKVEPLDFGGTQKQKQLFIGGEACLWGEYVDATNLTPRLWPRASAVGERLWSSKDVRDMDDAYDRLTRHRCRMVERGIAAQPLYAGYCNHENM
T2 sequence (P17900 32-193 partner): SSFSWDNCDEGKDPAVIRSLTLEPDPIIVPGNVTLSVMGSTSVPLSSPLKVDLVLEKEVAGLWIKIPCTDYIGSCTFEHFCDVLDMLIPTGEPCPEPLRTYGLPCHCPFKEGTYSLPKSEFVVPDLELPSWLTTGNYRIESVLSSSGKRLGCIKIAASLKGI
Excerpt: The conventional biological assay for the GM2 activator involves its function as a substrate specific co-factor for the hydrolysis of GM2 ganglioside by β-hexosaminidase A. This assay (described in detail in Meier et al., J. Biol. Chem., 266:1879-1887, 1991) requires that the activator has a functional hydrophobic binding site.

B1: functional activator: Non-glycosylated GM2 activator protein from His6-tag bacterial expression system, SEQ ID NO: 2 (protein)
chain: MRGSHHHHHHGSIEGRSSFSWDNCDEGKDPAVIRSLTLEPDPIVVPGNVTLSVVGSTSVPLSSPLKVDLVLEKEVAGLWIKIPCTDYIGSCTFEHFCDVLDMLIPTGEPCPEPLRTYGLPCHCPFKEGTYSLPKSEFVVPDLELPSWLTTGNYRIESVLSSSGKRLGCIKIAASLKGI
modifications: His6-tag; non-glycosylated; His tag at residues 1 to 17
- transport of R-18 between labeled and unlabeled liposomes (GM2 activator protein; 5 μg activator, 37° C., pH 5, increase in fluorescence over time): found to transport R-18
- slope of fluorescence dequenching (GM2 activator protein; activator in the absence of a ligand compound): 0.256 ΔFu/ΔT(min)
- inhibition of PAF-response (PAF; 800 pmol (15 μg/ml) of activator present, PAF 0.002 nmol): 75%
- release of intracellular calcium pools into the cytosol after PAF (PAF; PAF added to cuvettes containing the functional activator): significant decrease
- change in [Ca2+]i on addition of extracellular activator protein alone (PAF; added to suspension of INDO-1 AM-loaded cells, before PAF): did not result in a change in [Ca^2+]i
- specific activity as co-factor, compared with wild-type glycosylated precursor activator (CHO cells) (β-hexosaminidase A): functioned in a similar manner to the wildtype activator
